Laboratory results: patent US20020128189A1 (Harvard, published 2002)
Ends that are not written are not given here.

T1: LexA-E12477-654 (amino acids 477 to 654 of human E12 fused to LexA) (human, UniProt P15923 477-654)
T1 construct: not shown: LexA encoded by the LexA gene of pEG202, N-terminal fusion partner
T1 sequence (looked up): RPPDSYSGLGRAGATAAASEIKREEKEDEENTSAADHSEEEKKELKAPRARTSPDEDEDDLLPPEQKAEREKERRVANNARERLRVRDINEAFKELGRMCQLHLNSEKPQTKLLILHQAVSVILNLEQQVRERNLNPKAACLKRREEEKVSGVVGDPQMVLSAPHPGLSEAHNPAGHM

B1: Full-length human UBCH5 (interactant in the yeast two-hybrid interaction trap) (enzyme, not shown: large carriers)
chain: not shown

How the values were obtained:
[1] = molecular target: B1; experiment: yeast two-hybrid interaction trap
[2] = molecular target: T2, AD-UBCE2A (full-length UBCE2A fused to the B42 transcription activation domain) (rat, UniProt P63279 1-158 (human entry)); experiment: yeast two-hybrid interaction trap
T2 construct: also called AD-UBCE2A library isolate; UBPCE2A
T2 sequence (P63279 whole entry, the tested form may be a part): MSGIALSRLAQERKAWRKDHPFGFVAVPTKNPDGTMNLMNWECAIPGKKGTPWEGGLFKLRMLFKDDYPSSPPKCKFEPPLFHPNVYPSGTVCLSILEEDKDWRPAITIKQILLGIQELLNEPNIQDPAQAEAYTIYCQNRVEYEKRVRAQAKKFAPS

[3] = molecular target: T1, LexA-E12477-654 (amino acids 477 to 654 …); experiment: yeast two-hybrid interaction trap
[4] = molecular target: T2, AD-UBCE2A (full-length UBCE2A fused to …); experiment: yeast two-hybrid interaction trap, beta-galactosidase
Excerpt: In order to assess the specificity of interaction and to map the interaction domains, cells of the yeast strain EGY48/pSH18-34 were transformed with the indicated bait constructs and library/interactant plasmids, and plated on Ura⁻ His⁻ Trp⁻ glucose plates. The bait constructs used in the specificity test were: LexA-Id3, which contains all of the Id3 coding sequence; LexA-c-Myc, which contains the C-terminal 137 amino acids of mouse c-Myc; LexA-Max, which contains all of the rat Max coding sequences; and LexA-Oct1, which includes amino acids 294-429 of human Oct 1 (containing the POU domain). Eight to twelve colonies from each bait/interactant combination were picked and plated in duplicate on Ura⁻ His⁻ Trp⁻ X-gal plates containing either 2% glucose or 2% galactose, 1% raffinose, and the color was assessed after 48 hours.
The specificity of the interaction partners was further examined by transforming yeast harboring expression plasmids encoding LexA fusions with various known HLH proteins. No interaction was detected with the HLH protein, Id3 (Christy et al., 1991, Proc. Natl. Acad. Sci. USA 88:1815-1819), the bHLH-leucine zipper protein, max (Blackwood et al., 1991, Science 251:1211-1217), or the homeodomain protein, Oct 1 (Sturm et al., 1988, Genes & Dev. 2:1582-1599); only weak promoter activity was discerned following introduction of LexA-myc. […]

binding result [2]	binding result [4]	Binder	other results
binds		LexA-E12477-530 (other, human, UniProt P15923 477-530, looked up, not shown: LexA encoded by the LexA gene of pEG202, N-terminal fusion partner) LexA-RPPDSYSGLGRAGATAAASEIKREEKEDEENTSAADHSEEEKKELKAPRARTSP	binding result [1]: no binding
no binding		LexA-E12539-654 (other, human, UniProt P15923 539-654, looked up, also called LexA-E12 lacking this region; not shown: LexA encoded by the LexA gene of pEG202, N-terminal fusion partner) PPEQKAEREKERRVANNARERLRVRDINEAFKELGRMCQLHLNSEKPQTKLLILHQAVSVILNLEQQVRERNLNPKAACLKRREEEKVSGVVGDPQMVLSAPHPGLSEAHNPAGHM	
		B1	binding result [3]: no binding
	no binding	LexA-Oct1 (amino acids 294-429 of human Oct 1, containing the POU domain) (other, UniProt P14859 294-429, looked up, range 294-429; Bait for the specificity test; not shown: LexA encoded by the LexA gene of pEG202, N-terminal fusion partner) TFKQRRIKLGFTQGDVGLAMGKLYGNDFSQTTISRFEALNLSFKNMCKLKPLLEKWLNDAENLSSDSSLSSPSALNSPGIEGLSRRRKKRTSIETNIRVALEKSFLENQKPTSEEITMIADQLNMEKEVIRVWFCN	
	no binding	LexA-Id3 (all of the Id3 coding sequence) (other, rat, UniProt P41138 1-119, looked up, Bait for the specificity test; not shown: LexA encoded by the LexA gene of pEG202, N-terminal fusion partner) MKALSPVRGCYEAVCCLSERSLAIARGRGKSPSAEEPLSLLDDMNHCYSRLRELVPGVPRGTQLSQVEILQRVIDYILDLQVVLAEPAPGPPDGPHLPIQTAELTPELVISKDKRSFCH	
